Data from US20190106460A1 (published 2019).
Non-standard residues stand in square brackets, D forms with d. Groups on a side chain read outwards from the residue. *: point of attachment. Chol = cholesteryl, CC(C)CCC[C@@H](C)[C@H]1CC[C@H]2[C@@H]3CC=C4C[C@@H](*)CC[C@]4(C)[C@H]3CC[C@]12C; Benzenesulfonyl(4-tBu) = CC(C)(C)c1ccc(S(=O)(=O)*)cc1; 2,4,6‑trimethylbenzoyl = Cc1cc(C)c(C(=O)*)c(C)c1; Benzenesulfonyl(4-OMe) = COc1ccc(S(=O)(=O)*)cc1; 4‑(Br)‑2‑(Me)PhSO2 = Cc1cc(Br)ccc1S(=O)(=O)*; 4‑(i-Pr)PhSO2 = CC(C)c1ccc(S(=O)(=O)*)cc1; Benzoyl(4-tBu) = CC(C)(C)c1ccc(C(=O)*)cc1; 4‑(n-Pr)PhSO2 = CCCc1ccc(S(=O)(=O)*)cc1; Phe(3-F) = N[C@@H](Cc1cccc(F)c1)C(=O)O; Benzoyl(4-Br) = O=C(c1ccc(Br)cc1)*; 2Naphthoyl = O=C(c1ccc2ccccc2c1)*; Benzoyl(4-Me) = Cc1ccc(C(=O)*)cc1; Brosyl = O=S(=O)(c1ccc(Br)cc1)*; Ahx = NCCCCCC(=O)O

B1: 4-(MeO)PhSO2-dEGF(3F)WE-Ahx-k9-NH2 (peptide)
peptide: {Benzenesulfonyl(4-OMe)}-[dD]EG[Phe(3-F)]WE[Ahx][dK][dK][dK][dK][dK][dK][dK][dK][dK]-NH2
SMILES: COc1ccc(S(=O)(=O)N[C@H](CC(=O)O)C(=O)N[C@@H](CCC(=O)O)C(=O)NCC(=O)N[C@@H](Cc2cccc(F)c2)C(=O)N[C@@H](Cc2c[nH]c3ccccc23)C(=O)N[C@@H](CCC(=O)O)C(=O)NCCCCCC(=O)N[C@H](CCCCN)C(=O)N[C@H](CCCCN)C(=O)N[C@H](CCCCN)C(=O)N[C@H](CCCCN)C(=O)N[C@H](CCCCN)C(=O)N[C@H](CCCCN)C(=O)N[C@H](CCCCN)C(=O)N[C@H](CCCCN)C(=O)N[C@H](CCCCN)C(N)=O)cc1
notes: the sheet gives this poly-lysine compound the code UBP022; it is not the untailed UBP022 (1.m39, 5.m30, 6.m3)

Target: T1, βTrCP (tag cleaved and complexed with Skp1) (UniProt Q9Y297 175-605; P63208 1-163)
T1 construct: Protein of the fluorescence polarisation assay, 0.035 µM; also called Beta Transducin repeat-containing protein; βTrCP/Skp1
Experiment: fluorescence polarisation assay; the column head does not say whether IC50 or Ki
Description: Assay components (without compound) were premixed in a microcentrifuge tube and incubated for 1 hour to ensure equilibrium was achieved. Each compound was then added to one tube, mixed by vortexing, and then dispensed into 3 wells of a black 384-well plate and incubated for 30 minutes. Fluorescence polarization was then read (excitation 485 nm, emission 530 nm) using an Analyst-AD from Molecular Devices.
Binding of the compounds to βTrCP was assessed using a fluorescence polarisation (FP) binding assay. The FP assay is an in vitro binding assay using a fluorescein-tagged IkB peptide at 10 nM to mimic substrate binding to βTrCP, and was performed as described above.

Row | FP Assay / [nM] | Binder
1 | 19.3 | {Benzenesulfonyl(4-OMe)}-[dD]EG[Phe(3-F)]WE[Ahx]K([Ahx-Chol])-NH2 (X stands for Ahx; also called UBP036) [4-(MeO)PhSO2-dEGF(3F)WE-Ahx-K(Ahx-Chol)-NH2]
2 | 86.7 | {4‑(Br)‑2‑(Me)PhSO2}-[dD]EG[Phe(3-F)]WE[Ahx]K(2Naphthoyl)-NH2 (Round II CPP; also called UBP095) [4-(Br)-2-(Me)PhSO2-dEGF(3F)WE-Ahx-K(CO(2-Naphth))-NH2]
3 | 114 | {4‑(Br)‑2‑(Me)PhSO2}-[dD]EG[Phe(3-F)]WE[Ahx]K(2,4,6‑trimethylbenzoyl)-NH2 (Round II CPP; also called UBP096) [4-(Br)-2-(Me)PhSO2-dEGF(3F)WE-Ahx-K(CO((2,4,6-Me3)Ph))-NH2]
4 | 548 | B1
5 | 106 | Brosyl-[dD]EG[Phe(3-F)]WE[Ahx]K(Benzoyl(4-Br))-NH2 (Round II CPP; also called UBP093) [4-(Br)PhSO2-dEGF(3F)WE-Ahx-K(CO((4-Br)Ph))-NH2]
6 | 40 | {Benzenesulfonyl(4-tBu)}-[dD]EG[Phe(3-F)]WE[Ahx]K(Benzoyl(4-Me))-NH2 (Round II CPP; also called UBP078) [4-(t-Bu)PhSO2-dEGF(3F)WE-Ahx-K(CO((4-Me)Ph))-NH2]
7 | 39.6 | {4‑(n-Pr)PhSO2}-[dD]EG[Phe(3-F)]WE[Ahx]K(Benzoyl(4-Br))-NH2 (Round II CPP; also called UBP088) [4-(n-Pr)PhSO2-dEGF(3F)WE-Ahx-K(CO((4-Br)Ph))-NH2]
8 | 151 | Brosyl-[dD]EG[Phe(3-F)]WE[Ahx]K(Benzoyl(4-Me))-NH2 (Round II CPP; also called UBP092) [4-(Br)PhSO2-dEGF(3F)WE-Ahx-K(CO((4-Me)Ph))-NH2]
9 | 40.8 | {Benzenesulfonyl(4-tBu)}-[dD]EG[Phe(3-F)]WE[Ahx]K(Benzoyl(4-Br))-NH2 (Round II CPP; also called UBP079) [4-(t-Bu)PhSO2-dEGF(3F)WE-Ahx-K(CO((4-Br)Ph))-NH2]
10 | 114 | {4‑(Br)‑2‑(Me)PhSO2}-[dD]EG[Phe(3-F)]WE[Ahx]K(Benzoyl(4-Me))-NH2 (Round II CPP; also called UBP097) [4-(Br)-2-(Me)PhSO2-dEGF(3F)WE-Ahx-K(CO((4-Me)Ph))-NH2]
11 | 56.1 | {4‑(i-Pr)PhSO2}-[dD]EG[Phe(3-F)]WE[Ahx]K(2,4,6‑trimethylbenzoyl)-NH2 (Round II CPP; also called UBP082) [4-(i-Pr)PhSO2-dEGF(3F)WE-Ahx-K(CO((2,4,6-Me3)Ph))-NH2]
12 | 40.9 | {Benzenesulfonyl(4-tBu)}-[dD]EG[Phe(3-F)]WE[Ahx]K(2,4,6‑trimethylbenzoyl)-NH2 (Round II CPP; also called UBP077) [4-(t-Bu)PhSO2-dEGF(3F)WE-Ahx-K(CO((2,4,6-Me3)Ph))-NH2]
13 | 142 | {4‑(Br)‑2‑(Me)PhSO2}-[dD]EG[Phe(3-F)]WE[Ahx]K(Benzoyl(4-tBu))-NH2 (Round II CPP; also called UBP094) [4-(Br)-2-(Me)PhSO2-dEGF(3F)WE-Ahx-K(CO((4-tBu)Ph))-NH2]
14 | 87.8 | {Benzenesulfonyl(4-tBu)}-[dD]EG[Phe(3-F)]WE[Ahx]K(Benzoyl(4-tBu))-NH2 (Round II CPP; also called UBP075) [4-(t-Bu)PhSO2-dEGF(3F)WE-Ahx-K(CO((4-tBu)Ph))-NH2]
15 | 88.3 | Brosyl-[dD]EG[Phe(3-F)]WE[Ahx]K(2,4,6‑trimethylbenzoyl)-NH2 (Round II CPP; also called UBP091) [4-(Br)PhSO2-dEGF(3F)WE-Ahx-K(CO((2,4,6-Me3)Ph))-NH2]
16 | 58.3 | {4‑(n-Pr)PhSO2}-[dD]EG[Phe(3-F)]WE[Ahx]K(Benzoyl(4-Me))-NH2 (Round II CPP; also called UBP087) [4-(n-Pr)PhSO2-dEGF(3F)WE-Ahx-K(CO((4-Me)Ph))-NH2]
17 | 136 | {4‑(n-Pr)PhSO2}-[dD]EG[Phe(3-F)]WE[Ahx]K(2Naphthoyl)-NH2 (Round II CPP; also called UBP085) [4-(n-Pr)PhSO2-dEGF(3F)WE-Ahx-K(CO(2-Naphth))-NH2]
18 | 73 | {4‑(i-Pr)PhSO2}-[dD]EG[Phe(3-F)]WE[Ahx]K(Benzoyl(4-tBu))-NH2 (Round II CPP; also called UBP080) [4-(i-Pr)PhSO2-dEGF(3F)WE-Ahx-K(CO((4-tBu)Ph))-NH2]
19 | 92.4 | {4‑(Br)‑2‑(Me)PhSO2}-[dD]EG[Phe(3-F)]WE[Ahx]K(Benzoyl(4-Br))-NH2 (Round II CPP; also called UBP098) [4-(Br)-2-(Me)PhSO2-dEGF(3F)WE-Ahx-K(CO((4-Br)Ph))-NH2]
20 | 29.4 | {4‑(n-Pr)PhSO2}-[dD]EG[Phe(3-F)]WE[Ahx]K(2,4,6‑trimethylbenzoyl)-NH2 (Round II CPP; also called UBP086) [4-(n-Pr)PhSO2-dEGF(3F)WE-Ahx-K(CO((2,4,6-Me3)Ph))-NH2]
21 | 174 | {4‑(n-Pr)PhSO2}-[dD]EG[Phe(3-F)]WE[Ahx]K(Benzoyl(4-tBu))-NH2 (Round II CPP; also called UBP084) [4-(n-Pr)PhSO2-dEGF(3F)WE-Ahx-K(CO((4-tBu)Ph))-NH2]
22 | 7.66 | {4‑(i-Pr)PhSO2}-[dD]EG[Phe(3-F)]WE[Ahx]K(2Naphthoyl)-NH2 (Round II CPP; also called UBP081) [4-(i-Pr)PhSO2-dEGF(3F)WE-Ahx-K(CO(2-Naphth))-NH2]
23 | 133 | Brosyl-[dD]EG[Phe(3-F)]WE[Ahx]K(2Naphthoyl)-NH2 (Round II CPP; also called UBP090) [4-(Br)PhSO2-dEGF(3F)WE-Ahx-K(CO(2-Naphth))-NH2]
24 | 36.5 | {4‑(i-Pr)PhSO2}-[dD]EG[Phe(3-F)]WE[Ahx]K(Benzoyl(4-Br))-NH2 (Round II CPP; also called UBP083) [4-(i-Pr)PhSO2-dEGF(3F)WE-Ahx-K(CO((4-Br)Ph))-NH2]
25 | 43.4 | {Benzenesulfonyl(4-tBu)}-[dD]EG[Phe(3-F)]WE[Ahx]K(2Naphthoyl)-NH2 (Round II CPP; also called UBP076) [4-(t-Bu)PhSO2-dEGF(3F)WE-Ahx-K(CO(2-Naphth))-NH2]
26 | 305 | Brosyl-[dD]EG[Phe(3-F)]WE[Ahx]K(Benzoyl(4-tBu))-NH2 (Round II CPP; also called UBP089) [4-(Br)PhSO2-dEGF(3F)WE-Ahx-K(CO((4-tBu)Ph))-NH2]

Target: T2, βTrCP (tag cleaved and complexed with Skp1) (UniProt Q9Y297 175-605; P63208 1-163)
T2 construct: Protein of the FP assay (0.035 µM); also called Beta Transducin repeat-containing protein; βTrCP/Skp1
Experiment: FP competition vs fluorescein-IκB peptide

Row | IC50 [nM] | Binder
27 | 63 | {4‑(PhO)PhSO2}-[dD]EG[Phe(3-F)]WE-NH2 [4-(PhO)PhSO2-dEG-F(3F)-WE-NH2]

Target: T3, Beta Transducin repeat-containing protein (βTrCP), tag cleaved and complexed with Skp1 (UniProt Q9Y297 175-605; P63208 1-163)
T3 construct: the FP protocol says that Ki is determined from FP dose-response curves; also called βTrCP/Skp1
Experiment: FP competition dose-response, fluorescein-IkB peptide tracer on βTrCP/Skp1 (average Ki; assay not given)

T3 sequence (Q9Y297 175-605, chain 1 of 2): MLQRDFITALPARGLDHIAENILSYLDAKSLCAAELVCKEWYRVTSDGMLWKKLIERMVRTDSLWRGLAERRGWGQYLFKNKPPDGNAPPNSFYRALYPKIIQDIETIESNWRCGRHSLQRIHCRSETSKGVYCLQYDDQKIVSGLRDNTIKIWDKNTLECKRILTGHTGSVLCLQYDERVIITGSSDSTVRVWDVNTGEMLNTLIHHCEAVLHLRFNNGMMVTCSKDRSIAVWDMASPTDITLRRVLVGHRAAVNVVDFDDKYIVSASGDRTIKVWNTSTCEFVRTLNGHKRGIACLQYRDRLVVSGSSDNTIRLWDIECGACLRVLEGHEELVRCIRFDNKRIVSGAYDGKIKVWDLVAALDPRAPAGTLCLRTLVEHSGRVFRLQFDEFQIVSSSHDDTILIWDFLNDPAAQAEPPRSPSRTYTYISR
T3 sequence (P63208 whole entry, chain 2 of 2): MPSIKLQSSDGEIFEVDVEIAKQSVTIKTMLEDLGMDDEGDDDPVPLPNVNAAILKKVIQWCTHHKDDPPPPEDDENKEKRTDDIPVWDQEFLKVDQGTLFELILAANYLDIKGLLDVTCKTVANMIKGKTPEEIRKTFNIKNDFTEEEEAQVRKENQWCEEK

Row | Ki [nM] | Binder
28 | 9.45 | {4‑CF3‑PhSO2}-[dD]EG[Phe(3-F)]WE-NH2 (also called UBP047) [4-CF3-PhSO2-dEGF(3F)WE-NH2]
29 | 110 | {4‑Br‑2‑OCF3‑PhSO2}-[dD]EG[Phe(3-F)]WE-NH2 (also called UBP051) [4-Br-2-OCF3-PhSO2-dEGF(3F)WE-NH2]
30 | 45.3 | {2,4‑(Br)2‑PhSO2}-[dD]EG[Phe(3-F)]WE-NH2 (also called UBP049) [2,4-(Br)2-PhSO2-dEGF(3F)WE-NH2]
31 | 27 | {2,4‑(Cl)2‑PhSO2}-[dD]EG[Phe(3-F)]WE-NH2 (also called UBP048) [2,4-(Cl)2-PhSO2-dEGF(3F)WE-NH2]
32 | 3.96 | {4‑Br‑2‑CH3‑PhSO2}-[dD]EG[Phe(3-F)]WE-NH2 (also called UBP043) [4-Br-2-CH3-PhSO2-dEGF(3F)WE-NH2]
33 | 2.52 | {4‑Br‑PhSO2}-[dD]EG[Phe(3-F)]WE-NH2 (also called UBP042) [4-Br-PhSO2-dEGF(3F)WE-NH2]
34 | 4.77 | {4‑OCF3‑PhSO2}-[dD]EG[Phe(3-F)]WE-NH2 (also called UBP045) [4-OCF3-PhSO2-dEGF(3F)WE-NH2]
35 | 14.2 | {4‑Br‑3‑CF3‑PhSO2}-[dD]EG[Phe(3-F)]WE-NH2 (also called UBP046) [4-Br-3-CF3-PhSO2-dEGF(3F)WE-NH2]
36 | 24.6 | {3,5‑(CH3)2‑PhSO2}-[dD]EG[Phe(3-F)]WE-NH2 (also called UBP050) [3,5-(CH3)2-PhSO2-dEGF(3F)WE-NH2]
37 | 330 | {4‑Cl‑PhSO2}-[dD]EG[Phe(3-F)]WE-NH2 (also called UBP053) [4-Cl-PhSO2-dEGF(3F)WE-NH2]
38 | 253 | {4‑I‑PhSO2}-[dD]EG[Phe(3-F)]WE-NH2 (also called UBP052) [4-I-PhSO2-dEGF(3F)WE-NH2]
39 | 5.81 | {2‑Naph‑SO2}-[dD]EG[Phe(3-F)]WE-NH2 (also called UBP044) [2-Naph-SO2-dEGF(3F)WE-NH2]
